Values quoted from earlier work, collected in PMC2725201.
Where two headings read alike, the source gives them in different places.

Experiments:
[1] = target: C3a C3a (Homo sapiens) (UniProt P01024)
[2] = target: C5a C5a (Homo sapiens) (UniProt P01031)
[3] = target: C5a-desArg C5a-desArg (Homo sapiens) (UniProt P01031)
[4] = target: C5a C5a (Homo sapiens) (UniProt P01031); remark: listed apart in the source

Chain of C5aR (P21730 whole entry): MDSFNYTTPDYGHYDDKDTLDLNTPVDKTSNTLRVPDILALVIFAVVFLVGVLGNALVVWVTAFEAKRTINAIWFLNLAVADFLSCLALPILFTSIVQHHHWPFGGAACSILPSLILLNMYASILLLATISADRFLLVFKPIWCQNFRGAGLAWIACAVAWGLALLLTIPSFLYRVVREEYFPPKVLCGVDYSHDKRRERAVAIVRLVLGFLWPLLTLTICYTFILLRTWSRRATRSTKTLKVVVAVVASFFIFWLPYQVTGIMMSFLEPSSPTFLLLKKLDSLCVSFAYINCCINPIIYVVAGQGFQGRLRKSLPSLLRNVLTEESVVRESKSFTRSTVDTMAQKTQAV
Chain of C5a C5a (Homo sapiens) (P01031 675-754): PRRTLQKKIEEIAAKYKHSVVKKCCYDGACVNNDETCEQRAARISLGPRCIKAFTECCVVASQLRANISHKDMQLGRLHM
Chain of C5a-desArg C5a-desArg (Homo sapiens) (P01031 678-750): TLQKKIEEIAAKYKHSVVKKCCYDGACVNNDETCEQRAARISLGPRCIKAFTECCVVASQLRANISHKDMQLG
Chain of C3a C3a (Homo sapiens) (P01024 669-751): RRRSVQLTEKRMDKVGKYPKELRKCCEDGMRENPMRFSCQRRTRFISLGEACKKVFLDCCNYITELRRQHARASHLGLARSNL
Chain of C3aR (Q16581 whole entry): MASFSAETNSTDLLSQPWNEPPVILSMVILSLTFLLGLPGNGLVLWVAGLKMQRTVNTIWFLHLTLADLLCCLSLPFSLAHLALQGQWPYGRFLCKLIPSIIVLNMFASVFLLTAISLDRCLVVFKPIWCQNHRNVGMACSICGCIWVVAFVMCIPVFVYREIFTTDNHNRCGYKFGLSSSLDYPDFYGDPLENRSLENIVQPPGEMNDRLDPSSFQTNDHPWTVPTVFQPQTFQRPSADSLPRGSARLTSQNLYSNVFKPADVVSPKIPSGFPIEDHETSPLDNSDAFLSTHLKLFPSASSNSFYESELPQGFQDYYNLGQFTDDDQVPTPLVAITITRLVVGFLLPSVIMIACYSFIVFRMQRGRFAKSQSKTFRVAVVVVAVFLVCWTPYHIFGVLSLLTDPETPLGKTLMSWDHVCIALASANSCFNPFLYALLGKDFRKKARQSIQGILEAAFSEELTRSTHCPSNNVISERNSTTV
Chain of C5L2 (Q9P296 whole entry): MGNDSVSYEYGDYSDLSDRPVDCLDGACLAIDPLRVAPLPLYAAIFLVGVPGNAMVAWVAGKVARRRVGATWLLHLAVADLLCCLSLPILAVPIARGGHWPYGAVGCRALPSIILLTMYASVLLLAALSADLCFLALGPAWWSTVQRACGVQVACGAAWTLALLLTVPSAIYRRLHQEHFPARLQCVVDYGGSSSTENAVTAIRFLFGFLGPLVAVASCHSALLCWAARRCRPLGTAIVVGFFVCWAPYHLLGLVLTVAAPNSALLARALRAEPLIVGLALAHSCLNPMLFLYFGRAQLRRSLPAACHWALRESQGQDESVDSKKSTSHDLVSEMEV

Substance: C3aR (from UniProt Q16581)
- Kd [1]: 1 nM

Substance: C5aR (from UniProt P21730)
- Kd [2]: 1 nM
- Kd [3]: 660 nM

Substance: C5L2 (from UniProt Q9P296)
- Kd [4]: 2.5 nM
